{"source": "paper PMC9332573", "key": {"[1]": {"molecular_target": "C157S mutant of hDHHC3-Δ35 (hDHHS3-Δ35), C-terminal Twin-Strep tagged (human) (UniProt Q9NYG2)", "assay": "cryo-EM 2D classification; hDHHS3-Δ35 in GDN micelles from SEC peak 1; 200 kV Talos Arctica; 2D class averages with RELION 3; no 3D reconstruction"}, "[2]": {"molecular_target": "C157S mutant of hDHHC3-Δ35 (hDHHS3-Δ35), C-terminal Twin-Strep tagged (human) (UniProt Q9NYG2)", "assay": "SDS-PAGE; purified hDHHS3-Δ35 on SDS-PAGE; dimeric band at ≈50 kDa (Figure S5A)"}}, "data": [{"substance": "C157S mutant of hDHHC3-Δ35 (hDHHS3-Δ35), C-terminal Twin-Strep tagged (from UniProt Q9NYG2-2 36-299) (enzyme)", "values": [{"measurement": "stoichiometry N", "setting": "[1]", "result": 2}, {"measurement": "oligomeric state (number of subunits)", "setting": "[2]", "result": 2}]}]}
